Ends that are not written are not given here.
T1: 10-mer truncated form of APP28, YEVHH-QKLVF (SEQ ID NO: 8)
T1 chain: YEVHHQKLVF

T2: Ac-Tyr-Glu-Val-Ala-His-Gln-Lys-Leu-Val-Phe-NH2 (SEQ ID NO: 13)
T2 chain: YEVAHQKLVF

T3: proteolytic ADAM33 polypeptide (wild-type ADAM33 catalytic domain with Ser-Gly-His6 Tag, expressed in … (Homo sapiens (Human), UniProt Q9BZ11 204-409))
T3 sequence: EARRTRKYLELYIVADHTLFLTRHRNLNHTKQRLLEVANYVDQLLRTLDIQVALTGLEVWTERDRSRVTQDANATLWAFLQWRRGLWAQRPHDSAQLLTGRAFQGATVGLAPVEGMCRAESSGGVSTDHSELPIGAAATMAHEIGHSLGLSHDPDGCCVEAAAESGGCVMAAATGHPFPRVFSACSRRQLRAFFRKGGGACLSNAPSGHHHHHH

B1: proteolytic ADAM33 polypeptide (wild-type ADAM33 catalytic domain with Ser-Gly-His6 Tag, expressed in Drosophila S2 cells) (protein)
chain: T3 sequence
B2: SGYEVAH*QKLAFFA-OH (SEQ ID NO: 11) (peptide)
peptide: SGYEVAHQKLAFFA-OH
B3: SGYEVAH*QKLA-OH (SEQ ID NO: 9) (peptide)
peptide: SGYEVAHQKLA-OH
B4: Ac-Tyr-Glu-Val-Ala-His-Gln-Lys-Leu-Val-Phe-NH2 (SEQ ID NO: 13) (peptide)
peptide: Ac-YEVAHQKLVF-NH2
B5: YEVAH*QKLAF-OH (SEQ ID NO: 7) (peptide)
peptide: YEVAHQKLAF-OH
B6: YEVAH*QKLA-OH (SEQ ID NO: 12) (peptide)
peptide: YEVAHQKLA-OH
B7: EVAH*QKLA-OH (SEQ ID NO: 37) (peptide)
peptide: EVAHQKLA-OH
B8: Ac-VAH*QKL-NH2 (SEQ ID NO: 38) (peptide)
peptide: Ac-VAHQKL-NH2

What was measured:
[1] = target: T1, 10-mer truncated form of APP28, …
[2] = target: T2, Ac-Tyr-Glu-Val-Ala-His-Gln-Lys-Leu-Val-P …
[3] = target: T3, proteolytic ADAM33 polypeptide …; assay: cell-based or functional assay

| Binder | Relative Activity [3] | also measured |
| --- | --- | --- |
| B1 | – | cleavage [1]: identification of a 10-mer peptide substrate of a proteolytic ADAM33 polypeptide; kcat/Km [2]: kcat/Km=10,000 M-1s-1; rate of cleavage relative to the 10-mer truncated form of APP28 (SEQ ID NO: 8) [2]: at a rate seventeen times greater than the 10-mer truncated form of APP28 (SEQ ID NO: 8) |
| B2 | 1.2 | – |
| B3 | 0.5 | – |
| B4 | 1 | – |
| B5 | 1.1 | – |
| B6 | 0.9 | – |
| B7 | 0.1 | – |
| B8 | 0 | – |

Source: patent US20040152869A1 (SCHERING, published 2004)
